Experimental data reported in patent publication US20240158496A1 (Johns Hopkins, published 2024).

How the values were obtained:
[1] = biological target: T1, recombinant human (rh) CEACAM-1 (human, UniProt P13688 35-428, limits assumed); assay: protein A-agarose pull-down, CEACAM1 immunoblot
T1 construct: Recombinant protein used in the in vitro protein A pull-down
T1 sequence (looked up): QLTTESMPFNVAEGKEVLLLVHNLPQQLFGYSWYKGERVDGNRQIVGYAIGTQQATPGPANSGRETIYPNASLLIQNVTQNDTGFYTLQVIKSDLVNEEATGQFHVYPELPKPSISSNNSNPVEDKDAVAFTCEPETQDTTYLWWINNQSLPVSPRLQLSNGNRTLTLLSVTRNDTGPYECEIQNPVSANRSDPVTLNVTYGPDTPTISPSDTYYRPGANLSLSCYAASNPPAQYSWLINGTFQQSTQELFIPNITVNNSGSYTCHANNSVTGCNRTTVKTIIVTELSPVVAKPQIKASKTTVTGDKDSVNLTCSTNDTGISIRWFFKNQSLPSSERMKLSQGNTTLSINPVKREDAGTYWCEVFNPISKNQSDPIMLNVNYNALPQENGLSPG
Description: The precipitated complexes were washed with immunoprecipitation buffer, re-suspended in NuPAGE sample buffer with reducing agent, boiled, resolved on a Bis-Tris Criterion XT Gel system and transferred to a PVDF membrane. Membranes were immunoblotted with primary antibodies [CEACAM1 (D1P4T); TIM3 (D5D5R™)] overnight, washed, incubated with secondary antibodies and visualized by Amersham ECL Western Blotting Detection Reagents. […] This assay is also used to evaluate the binding of any antibody-ligand trap comprising a ligand-binding sequence of a ligand-binding sequence of TIM-3 ectodomain(TIM-3ecd) to rh CEACAM-1.

[2] = biological target: T2, CEACAM-1 on co-stimulated human T cells (human, UniProt P13688 35-526); assay: protein A-agarose immunoprecipitation of lysates of co-stimulated human PBMC treated for 6 d, CEACAM1 immunoblot
T2 construct: whole, on cells; Endogenous protein
T2 sequence (looked up): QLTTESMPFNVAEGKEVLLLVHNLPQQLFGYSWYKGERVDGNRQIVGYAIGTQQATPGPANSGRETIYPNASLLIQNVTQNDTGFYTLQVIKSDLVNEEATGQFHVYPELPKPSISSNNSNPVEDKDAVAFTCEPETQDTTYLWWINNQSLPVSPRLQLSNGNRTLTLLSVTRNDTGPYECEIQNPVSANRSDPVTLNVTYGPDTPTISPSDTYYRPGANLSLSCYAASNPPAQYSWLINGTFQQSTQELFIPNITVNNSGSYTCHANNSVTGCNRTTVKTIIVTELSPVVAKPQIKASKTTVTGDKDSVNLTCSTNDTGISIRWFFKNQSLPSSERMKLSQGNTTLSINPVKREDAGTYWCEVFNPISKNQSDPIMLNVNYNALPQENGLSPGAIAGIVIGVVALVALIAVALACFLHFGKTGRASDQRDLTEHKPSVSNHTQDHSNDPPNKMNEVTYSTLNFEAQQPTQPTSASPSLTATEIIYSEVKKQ
Description: The precipitated complexes were washed with immunoprecipitation buffer, re-suspended in NuPAGE sample buffer with reducing agent, boiled, resolved on a Bis-Tris Criterion XT Gel system and transferred to a PVDF membrane. Membranes were immunoblotted with primary antibodies [CEACAM1 (D1P4T); TIM3 (D5D5R™)] overnight, washed, incubated with secondary antibodies and visualized by Amersham ECL Western Blotting Detection Reagents.

B1: α-PD1 mAb (nivolumab) (antibody)
heavy: not shown
light: not shown
notes: Parent antibody used as a control; also called α-PD1 antibody (nivolumab); a-PD1 mAb (nivolumab)
binding result [1]: no binding (tested: 10 µg antibody with 5 µg rhCEACAM-1) | binding result [2]: no binding
